We go through eight molecules from doi:10.1101/2021.09.05.459021 (bioRxiv, 2021).

One data set addresses EGFP fusion of KCNH1 (UniProt O95259). As to the kind of experiment: single-molecule subunit counting.
Data set [1] concerns the target mTTYH3 ECD1-T4L-ECD2 (mouse | bacteriophage T4) (UniProt Q6P5F7). In words: cross-linking.
The data set “SEC” concerns the molecule itself. As to the kind of experiment: SEC. A general note: Size exclusion chromatography separates by hydrodynamic size, large species first.
Data set [2] concerns the molecule itself. In words: single-molecule subunit counting.
The data set “native gel or EMSA” deals with the molecule itself. In words: native gel or EMSA. (In EMSA bound probe runs differently from free probe, usually more slowly.)

Where “and” joins values, the source holds several entries; their conditions need not be identical. Equal values may be shown once.

In general, stoichiometry N refers to a count of units in the complex or per binding partner.

With “EGFP fusion of KCNH1 (from UniProt O95259 1-989) (natural protein)”, the stoichiometry N in the data set with EGFP fusion of KCNH1 is 4.
In the case of “mTTYH3 ECD1-T4L-ECD2 (from UniProt Q6P5F7 107-209; Q6P5F7 260-386) (domain or fragment)”, the stoichiometry N in data set [1] amounted to 4.

B1: mTTYH1-EGFP (C-terminal EGFP fusion of mouse TTYH1), expressed in HEK 293 cells (natural protein, UniProt Q9D3A9 1-450, looked up)
chain: MGAPPGYRPSAWVHLLHQLPRADFQLRPVPSGFAPRDQEYQQALLLVAALAGLGLGLSLIFIAVYLIRFCCCRPPEPHGAKSPPPGGGCVTWSCIAALLVGCAGIGIGFYGNSETSDGVSQLSSALLHANHTLSTIDDVVLETVERLGEAVKTELTTLEEVLSVRMELVAATRGARRQAEAAAQYLQGLAFWQGVSLSPVQVAEDVTFVEEYRWLAYVLLLLLVLLVCLFTLLGLAKQSKWLVVVMTAMSLLVLVLSWGSMGLEAATAVGLSDFCSNPDTYVLNLTQEETGLSSDILSYYFLCNQAVSNPFQQRLTLSQRALASIHSQLQGLEREAIPQFSAAQKPLLSLEETLNVTERSFHQLVALLHCRSLHKDYGSALRGLCEDALEGLLFLMLFSLLSAGALATTLCSLPRAWALFPPSDDYDDTDDDDPFNPQESKRFVQWQSSI
Take B1: the “stoichiometry N” value in “SEC” is 4 and 2.

B2: mTTYH1-EGFP (C-terminal EGFP fusion of mouse TTYH1), expressed in Xenopus oocytes (natural protein, UniProt Q9D3A9 1-450, looked up)
chain: B1 chain
Regarding B2, in data set [2], the “stoichiometry N” value is 4.

B3: FLAG-tagged mouse TTYH1 (mTTYH1) (natural protein, UniProt Q9D3A9 1-450, looked up)
chain: B1 chain
Take B3: the “stoichiometry N” value in the data set “native gel or EMSA” is 2 and 4.

B4: mTTYH3-EGFP (C-terminal EGFP fusion of mouse TTYH3), expressed in HEK 293 cells (natural protein, UniProt Q6P5F7 1-524, looked up)
chain: MAGVSYAAPWWVSLLHRLPHFDLRWEATSSQFRPEDADYQQALLLLGATALACLALDLLFLLFYSFWLCCRRRKTDEHLDADCCCTAWCVIITTLVCSAGIAVGFYGNGETSDGIHRATYSLRHANRTVAGVQDRVWDTAAALNRTAEPNLQSLERQLAGRQEPLRAVQRLQTLLGTLLGYTAAIPFWRNPGVSLEVLAEQVDLYDWYRWLGYLGLLLLDVIICLLVLVGLIRSSKGILVGVCLLGVLALVISWGALGLELAVSVGSSDFCVDPDTFVTKMVEEHSVLSGDILQYYLACSPRATNPFQQKLSGSHKALVEMQDVVAELLRNVPREHPATKDPLLRVQEVLNGTEVNLQHLTALVDCRSLHLDYVQALTGFCYDGVEGLIYLALFSFVTALMFSSIVCSIPHTWQQKRGPDDDGEEETAPGPRQAHDSLYRVHMPSLYSCGSSYGSEASIPAAAHTVSNAPVTEYMSQNANFQNPRCENTPLIGRESPPPSYTSSMRAKYLATSQPRPDSSGSGH
As to B4, in the data set “SEC”, the “ratio of tetramers to dimers” value was roughly 1.5; the “stoichiometry N” value was 4 and 2.

B5: mTTYH3-EGFP (C-terminal EGFP fusion of mouse TTYH3), expressed in Xenopus oocytes (natural protein, UniProt Q6P5F7 1-524, looked up)
chain: B4 chain
Take B5: in data set [2], the “stoichiometry N” value stood at 4.

B6: FLAG-tagged mouse TTYH3 (mTTYH3) (natural protein, UniProt Q6P5F7 1-524, looked up)
chain: B4 chain
As to B6, the “stoichiometry N” value in the data set “native gel or EMSA” was 2 and 4.
